To fix the notation:
B1: Transcription factor ATOH7 (Homo sapiens), Q8N100 (parent)
chain: MKSCKPSGPPAGARVAPPCAGGTECAGTCAGAGRLESAARRRLAANARERRRMQGLNTAFDRLRRVVPQWGQDKKLSKYETLQMALSYIMALTRILAEAERFGSERDWVGLHCEHFGRDHYLPFPGAKLPGESELYSQRLFGFQPEPFQMAT
partner: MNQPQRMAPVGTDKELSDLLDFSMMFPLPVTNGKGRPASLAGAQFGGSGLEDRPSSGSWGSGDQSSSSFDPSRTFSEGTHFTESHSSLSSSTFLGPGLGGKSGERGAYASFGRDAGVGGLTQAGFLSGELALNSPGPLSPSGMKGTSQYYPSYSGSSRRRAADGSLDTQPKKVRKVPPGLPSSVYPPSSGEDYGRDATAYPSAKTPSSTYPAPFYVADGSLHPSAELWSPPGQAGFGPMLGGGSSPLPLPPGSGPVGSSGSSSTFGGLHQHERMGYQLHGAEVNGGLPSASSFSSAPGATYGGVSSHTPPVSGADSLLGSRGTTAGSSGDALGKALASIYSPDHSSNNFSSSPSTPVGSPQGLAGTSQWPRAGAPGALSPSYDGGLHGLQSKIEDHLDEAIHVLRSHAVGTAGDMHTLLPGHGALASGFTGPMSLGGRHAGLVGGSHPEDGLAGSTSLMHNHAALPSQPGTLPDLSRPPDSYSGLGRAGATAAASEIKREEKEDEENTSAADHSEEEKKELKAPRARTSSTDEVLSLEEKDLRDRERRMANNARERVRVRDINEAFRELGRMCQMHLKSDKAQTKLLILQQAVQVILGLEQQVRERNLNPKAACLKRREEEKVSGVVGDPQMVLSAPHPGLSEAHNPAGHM

The variants in the assay derive from B1. The settings on record: with TCF3, P15923-2.
With N46H, the “effect of a mutation on the interaction” value was “disrupting interaction strength”.
Under A59G stands “decreasing interaction strength”.
Consider A59V, for which the “effect of a mutation on the interaction” value is “disrupting interaction strength”.
The entry for A59T is “disrupting interaction strength”.

The record behind these values is IntAct's records for PubMed 31696227.
